{
  "source": "paper PMC7251095",
  "molecular_target": "E. coli F1Fo ATP synthase subunit b (cysteine free) (E. coli) (UniProt P0ABA0)",
  "test": "cryo-EM structure; detergent-solubilized (digitonin) cysteine free E. coli F1Fo ATP synthase at 11 μM with 10 mM MgADP, 22 °C for 30 s before freezing; 300 kV; nine sub-states and a Fo focused map of Sub-state 3A",
  "data": [
    {"substance": "E. coli F1Fo ATP synthase subunit b (cysteine free) (from UniProt P0ABA0 1-156) (natural protein)", "values": [
      {"measurement": "stoichiometry N", "result": 2}
    ]}
  ]
}
